From PMC10134200 (Cell Insight, 2023)

Biological target: GST-CaM (glutathione S-transferase-tagged calmodulin) (UniProt P0DP23 1-149)
Test: pull-down

B1: His-P3CP (His-tagged TRPP3 C-terminal peptide I560-K660) (domain or fragment)
chain: INDTYSEVKEELAGQKDELQLSDLLKQGYNKTLLRLRLRKERVSDVQKVLQGGEQEIQFEDFTNTLRELGHAEHEITELTATFTKFDRDGNRILDEKEQEK
  binding result: binds
